In PMC9104065 one finds CLEIA count, fold over nIgA1 not treated with sialidase data, which are given here for one substance.

This experiment has as its target Wisteria floribunda agglutinin (Wisteria floribunda). Kind of experiment: automated chemiluminescent enzyme immunoassay (CLEIA, HISCL); IgA1 standards captured on WFA-conjugated magnetic beads, detected with alkaline-phosphatase-labelled anti-IgA1 mAb; 42 °C.

In turn, “polymeric IgA1 standard cross linked with glutaraldehyde, with sialidase digestion” gave a CLEIA count, fold over nIgA1 not treated with sialidase of 700 fold.
